# Results as given in article PMC7972864, “Fucoxanthin Prevents 6-OHDA-Induced Neurotoxicity by Targeting Keap1” (Oxidative Medicine and Cellular Longevity, 2021).
# Target: human Keap1 protein (human), Q14145
# Test: BLI
# Conditions: natural protein; chains chain; biotinylated (site not stated); remark: other sources report otherwise
# human Keap1 protein (human), Q14145, sequence (Q14145 whole entry): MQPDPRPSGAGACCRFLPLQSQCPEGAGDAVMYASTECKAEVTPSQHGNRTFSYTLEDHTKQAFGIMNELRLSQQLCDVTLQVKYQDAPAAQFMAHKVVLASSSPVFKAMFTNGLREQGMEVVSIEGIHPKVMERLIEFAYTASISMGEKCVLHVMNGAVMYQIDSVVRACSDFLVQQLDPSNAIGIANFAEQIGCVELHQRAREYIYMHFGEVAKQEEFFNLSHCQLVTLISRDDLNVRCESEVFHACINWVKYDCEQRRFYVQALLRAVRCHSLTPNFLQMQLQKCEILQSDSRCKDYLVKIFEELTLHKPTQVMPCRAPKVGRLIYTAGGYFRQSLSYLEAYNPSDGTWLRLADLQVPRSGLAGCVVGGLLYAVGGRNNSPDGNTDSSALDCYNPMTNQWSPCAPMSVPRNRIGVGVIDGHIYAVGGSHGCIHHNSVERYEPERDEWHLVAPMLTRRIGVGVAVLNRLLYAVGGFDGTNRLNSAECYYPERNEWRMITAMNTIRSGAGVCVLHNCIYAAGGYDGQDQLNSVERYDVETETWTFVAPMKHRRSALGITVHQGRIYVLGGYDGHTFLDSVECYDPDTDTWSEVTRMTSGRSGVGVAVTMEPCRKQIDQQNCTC
binder,measurement,value
"human Nrf2 protein, Q16236 1-605 (protein) MMDLELPPPGLPSQQDMDLIDILWRQDIDLGVSREVFDFSQRRKEYELEKQKKLEKERQEQLQKEQEKAFFAQLQLDEETGEFLPIQPAQHIQSETSGSANYSQVAHIPKSDALYFDDCMQLLAQTFPFVDDNEVSSATFQSLVPDIPGHIESPVFIATNQAQSPETSVAQVAPVDLDGMQQDIEQVWEELLSIPELQCLNIENDKLVETTMVPSPEAKLTEVDNYHFYSSIPSMEKEVGNCSPHFLNAFEDSFSSILSTEDPNQLTVNSLNSDATVNTDFGDEFYSAFIAEPSISNSMPSPATLSHSLSELLNGPIDVSDLSLCKAFNQNHPESTAEFNDSDSGISLNTSPSVASPEHSVESSSYGDTLLGLSDSEVEELDSAPGSVKQNGPKTPVHSSGDMVQPLSPSQGQSTHVHDAQCENTPEKELPVSPGHRKTPFTKDKHSSRLEAHLTRDELRAKALHIPFPVEKIINLPVVDFNEMMSKEQFNEAQLALIRDIRRRGKNKVAAQNCRKRKLENIVELEQDLDHLKDEKEKLLKEKGENDKSLHLLKKQLSTLYLEVFSMLRDEDGKPYSPSEYSLQQTRDGNVFLVPKSKKPDVKKN",Kd,12.6 nM
